Experimental data reported in patent publication US6395548.

Target: EPAS1 (HIF-2alpha) (Homo sapiens) (UniProt Q99814)
Assay: cell_activity
Settings: luciferase reporter, 6 ug plasmid, BAEC; direct binding not shown

Chain of EPAS1 (HIF-2alpha) (Homo sapiens) (Q99814 whole entry): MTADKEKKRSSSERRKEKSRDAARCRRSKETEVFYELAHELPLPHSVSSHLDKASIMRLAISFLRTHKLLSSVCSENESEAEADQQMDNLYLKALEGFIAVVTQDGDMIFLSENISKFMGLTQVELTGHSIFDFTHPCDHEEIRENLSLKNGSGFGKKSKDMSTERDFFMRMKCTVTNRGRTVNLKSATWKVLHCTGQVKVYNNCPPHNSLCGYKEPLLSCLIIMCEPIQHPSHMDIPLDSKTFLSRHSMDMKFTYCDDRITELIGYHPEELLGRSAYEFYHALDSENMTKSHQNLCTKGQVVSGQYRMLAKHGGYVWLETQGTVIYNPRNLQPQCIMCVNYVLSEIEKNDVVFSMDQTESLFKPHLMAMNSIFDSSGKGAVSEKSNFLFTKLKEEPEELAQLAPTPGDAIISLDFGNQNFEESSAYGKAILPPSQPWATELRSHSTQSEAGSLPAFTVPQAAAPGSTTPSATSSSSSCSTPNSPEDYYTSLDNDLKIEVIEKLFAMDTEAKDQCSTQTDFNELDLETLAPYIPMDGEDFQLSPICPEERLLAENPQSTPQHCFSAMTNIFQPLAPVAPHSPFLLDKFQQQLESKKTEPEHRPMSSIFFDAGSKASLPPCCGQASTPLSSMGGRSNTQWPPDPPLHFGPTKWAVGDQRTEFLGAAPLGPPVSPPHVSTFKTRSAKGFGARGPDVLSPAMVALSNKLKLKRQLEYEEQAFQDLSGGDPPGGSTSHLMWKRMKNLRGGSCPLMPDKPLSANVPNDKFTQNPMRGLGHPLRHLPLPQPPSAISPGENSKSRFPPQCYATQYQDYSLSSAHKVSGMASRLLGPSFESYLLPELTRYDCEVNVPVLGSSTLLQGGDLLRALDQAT

Question: With KDR/flk-1 promoter -4 kb to +296 as the substance, how does the activity read?
Answer: 12.9 fold
